Consider one substance from article PMC5770381.

What all share (assay): purified protein
Series [1] concerns CO/N=C(\C(=O)N[C@@H]1C(=O)N2C(C(=O)O)=C(COC(C)=O)CS[C@H]12)c1csc(N)n1. The note with it: Tris-HCl pH 7.4, 35 °C, 10-100 μM substrate.
In series [2] the test system is CC1(C)S[C@@H]2[C@H](NC(=O)[C@H](N)c3ccc(O)cc3)C(=O)N2[C@H]1C(=O)O. The conditions noted are these: Tris-HCl pH 7.4, 35 °C, 20-500 μM substrate.
For series [3], the system named is C[C@@H](O)[C@H]1C(=O)N2C(C(=O)O)=C(S[C@@H]3CN[C@H](C(=O)N(C)C)C3)[C@H](C)[C@H]12. The note with it: Tris-HCl pH 7.4, 35 °C, 10-200 μM substrate.

The term Km denotes the concentration of substrate that gives half-maximal velocity. For orientation: kcat means the maximal rate divided by the concentration of active sites. The term kcat/Km denotes the turnover number divided by the Michaelis constant. On to “ElBla2 (Erythrobacter litoralis HTCC2594)”, for which, in series [1], the Km was found to be 13 ± 4 µM, the kcat was found to be 0.9 ± 0.1 s⁻¹ and the kcat/Km was 70000 M⁻¹ s⁻¹. In series [2], the Km was determined as 39 ± 9 µM, the turnover number (kcat) is 1.4 ± 0.1 s⁻¹ and the kcat/Km stood at 40000 M⁻¹ s⁻¹. For the same substance, in series [3], the Km came to 19 ± 6 µM, the kcat amounted to 2.1 ± 0.2 s⁻¹ and the kcat/Km came out at 110000 M⁻¹ s⁻¹.
